The results in this text go back to patent US20230340152A1 (published 2023).

In test [1] the target is T1, Human CD73 ECD (human, UniProt P21589 27-549).
T1 construct: Biotinylated in some assays; also called human CD73 extracellular domain; huCD73
T1 sequence: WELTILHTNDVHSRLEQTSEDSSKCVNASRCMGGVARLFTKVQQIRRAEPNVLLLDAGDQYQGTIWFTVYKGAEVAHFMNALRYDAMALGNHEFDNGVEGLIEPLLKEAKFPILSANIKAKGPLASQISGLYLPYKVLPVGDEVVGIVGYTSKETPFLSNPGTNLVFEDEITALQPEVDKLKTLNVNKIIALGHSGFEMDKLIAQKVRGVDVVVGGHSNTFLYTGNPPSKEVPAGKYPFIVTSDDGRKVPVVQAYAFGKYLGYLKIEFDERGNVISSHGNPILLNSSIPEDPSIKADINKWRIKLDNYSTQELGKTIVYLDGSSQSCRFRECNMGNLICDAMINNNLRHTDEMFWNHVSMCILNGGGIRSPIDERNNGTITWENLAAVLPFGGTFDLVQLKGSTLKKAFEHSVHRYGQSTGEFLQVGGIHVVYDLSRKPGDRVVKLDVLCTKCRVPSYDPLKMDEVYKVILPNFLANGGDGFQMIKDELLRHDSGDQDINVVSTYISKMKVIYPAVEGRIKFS
The test is described as follows: SPR (Proteon).

In test [2] the target is T2, Murine CD73 ECD (murine, UniProt Q61503 29-551, limits assumed).
T2 construct: extracellular domain; In-house recombinant ECD; also called murine CD73 extracellular domain; muCD73
T2 sequence (looked up): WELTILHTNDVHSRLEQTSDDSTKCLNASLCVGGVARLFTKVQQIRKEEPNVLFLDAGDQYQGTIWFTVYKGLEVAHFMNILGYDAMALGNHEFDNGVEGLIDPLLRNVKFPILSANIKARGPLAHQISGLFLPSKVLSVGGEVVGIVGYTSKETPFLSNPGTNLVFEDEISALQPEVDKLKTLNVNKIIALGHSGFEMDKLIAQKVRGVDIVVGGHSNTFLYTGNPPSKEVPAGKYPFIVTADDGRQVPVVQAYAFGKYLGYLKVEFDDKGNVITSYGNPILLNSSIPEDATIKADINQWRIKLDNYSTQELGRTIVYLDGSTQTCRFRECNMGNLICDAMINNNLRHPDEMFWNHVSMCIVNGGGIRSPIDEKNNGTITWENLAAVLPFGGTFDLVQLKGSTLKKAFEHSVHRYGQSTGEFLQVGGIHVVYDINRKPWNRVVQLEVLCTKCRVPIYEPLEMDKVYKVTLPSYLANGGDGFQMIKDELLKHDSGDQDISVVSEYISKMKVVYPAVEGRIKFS
Kind of test: SPR (Proteon).

The target in test [3] is T3, Cynomolgus CD73 ECD (cynomolgus, UniProt A0A2K5V5U7 27-549).
T3 construct: extracellular domain; also called cyno CD73
T3 sequence: T1 sequence with M199T, T350A, V466I
The test is described as follows: SPR (Proteon).

The target of test [4] is T1, Human CD73 ECD. The test is described as follows: cell-based or functional assay.
The target in test [5] is T4, Human CD73 on cells (MDA-MB-231, Jurkat CD73 knock-in, NCI-H322) (human, UniProt P21589 27-549).
T4 sequence: T1 sequence
The test is described as follows: cell-based or functional assay.

For test [6], the target named is T4, Human CD73 on cells (MDA-MB-231, Jurkat …). Kind of test: flow cytometry on cells. (In flow cytometry, cells or beads pass a laser one at a time.)
Test [7] deals with T5, Murine CD73 on cells (4T1, Jurkat mCD73 knock-in) (murine, UniProt Q61503 29-551).
T5 construct: whole, on cells; also called 4T1 (murine)
T5 sequence (looked up): T2 sequence (looked up)
The test is described as follows: flow cytometry on cells.

Test [8] deals with CD73 (species and format not stated). Kind of test: binding assay not stated.
In test [9] the target is T1, Human CD73 ECD. The test is described as follows: binding assay, format not stated.
Test [10] deals with T2, Murine CD73 ECD. The test is described as follows: binding assay, format not stated.
The target of test [11] is T3, Cynomolgus CD73 ECD. Kind of test: binding assay, format not stated.
The target of test [12] is T1, Human CD73 ECD. Kind of test: capture ELISA and direct ELISA, normalized Fab supernatants. For orientation: In an ELISA, binding on a coated surface is turned into a signal by an enzyme label.
Test [13] has as its target T2, Murine CD73 ECD. The description is as above.
In test [14] the target is T6, Cynomolgus CD73 on MK-1 cells (cynomolgus, UniProt A0A2K5V5U7 27-549).
T6 construct: whole, on cells; also called MK-1 (cyno)
T6 sequence: T1 sequence with M199T, T350A, V466I
Kind of test: flow cytometry on cells.

Test [15] deals with T4, Human CD73 on cells (MDA-MB-231, Jurkat …). The test is described as follows: cell-based or functional assay. This is another data set of the same source.
In test [16] the target is T5, Murine CD73 on cells (4T1, Jurkat mCD73 …). The test is described as follows: cell-based or functional assay.
Test [17] addresses T1, Human CD73 ECD. Kind of test: binding to recombinant human CD73 by flow cytometry, IgG1-TM.
The target of test [18] is T2, Murine CD73 ECD. Kind of test: binding to recombinant murine CD73 by flow cytometry, IgG1-TM.
For test [19], the target named is T4, Human CD73 on cells (MDA-MB-231, Jurkat …). Kind of test: flow cytometry on MDA-MB-231 cells, IgG from 293F cells.

As usually defined, the Kd is a measure of binding affinity in units of concentration. High values mean lower affinity, low ones higher affinity. The term EC50 denotes the concentration giving half of the maximal effect.

Numbering of substitutions follows the chain as printed. In names and notes the source's numbering stands.

B1: CD730010 (antibody, V domains shown)
VH: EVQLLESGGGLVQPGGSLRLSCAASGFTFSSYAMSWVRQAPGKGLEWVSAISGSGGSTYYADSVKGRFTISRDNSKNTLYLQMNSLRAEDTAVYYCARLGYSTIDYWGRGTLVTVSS
VL: LPVLTQPPSVSGTPGQRVTISCSGSLSNIGRNPVNWYKQVPGTAPKLLIYLNNQRPSGVPDRFSGSKSGTSASLAISGLQSEDEADYYCATWDDSLNGWLFGGGTKLTVL
notes: IgG1-TM format (L234F, L235E, P331S); also called CD730010 antibody; clone 10
Regarding B1, the Kd came to 3.58 nM with Human CD73 ECD [1]; 2.47 nM with Murine CD73 ECD [2]; 1.92 nM with Cynomolgus CD73 ECD [3]; 8 nM in test [6]; 6.1 nM in test [7]. For the same molecule, in the test with Human CD73 ECD [4], the “Enzyme Inhibition, rCD73, 1/EC50 (nM)” value was 0.0062 nM⁻¹. Further, the “Enzyme Inhibition, MDA-MB-231, 1/EC50 (nM)” value in test [5] stood at 0.33 nM⁻¹. In addition, in [5], the “Internalization, MDA-MB-231, 1/EC50 (nM)” value was determined as 0.0062 nM⁻¹. In [8], this molecule yielded a concentration for a half-maximal effect (EC50) of 69 nM. Also, the 1/EC50 with Human CD73 ECD [9] was 0.0034 nM⁻¹; in the test with Murine CD73 ECD [10] it was 0.0024 nM⁻¹; in the test with Cynomolgus CD73 ECD [11], 0.0033 nM⁻¹.

B2: Clone D3 Fab (Fab, V domains shown)
VH: EVQLLESGGGLVQPGGSLRLSCAASGFTFSSYAYSWVRQAPGKGLEWVSAISGSGGRTYYADSVKGRFTISRDNSKNTLYLQMNSLRAEDTAVYYCARLGYSTIDLWGRGTLVTVSS
VL: B1 VL with L1Q, P2S, V10A, K38Q, V40L, N52D, Q54L, P56L, N97I
notes: Bacterial Fab from the combinatorial library
Take B2: the binding result in the test with Human CD73 ECD [12] and with Murine CD73 ECD [13] was “binds” each time.

B3: C1 (IgG1-TM) (antibody, V domains shown)
VH: B2 VH with R57S, L106K
VL: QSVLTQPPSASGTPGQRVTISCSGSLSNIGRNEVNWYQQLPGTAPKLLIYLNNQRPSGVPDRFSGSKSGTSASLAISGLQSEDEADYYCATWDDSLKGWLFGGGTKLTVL
notes: IgG1-TM format; also called clone 10 C1
For B3, the Kd with Human CD73 ECD [1] came out at 0.029 nM; with Murine CD73 ECD [2], 0.006 nM; with Cynomolgus CD73 ECD [3], 0.012 nM; in [6] it was 0.179 nM; in test [7], 0.095 nM; in [14], 0.16 nM.

B4: 73combo1 (C1+GRVE+HPT) (antibody, V domains shown)
VH: B2 VH with R57S, S102G, T103R, I104V, L106E
VL: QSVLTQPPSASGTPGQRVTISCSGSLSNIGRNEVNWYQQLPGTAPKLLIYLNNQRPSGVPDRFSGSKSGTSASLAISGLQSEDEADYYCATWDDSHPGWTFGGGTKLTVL
notes: IgG1-TM format; also called 73combol; clone 10 combo1
As for B4, the Kd was determined as 0.007 nM in the test with Human CD73 ECD [1]; 0.002 nM with Murine CD73 ECD [2]; 0.008 nM with Cynomolgus CD73 ECD [3]; 0.157 nM in test [6]; 0.15 nM in test [7]; 0.09 nM in [14]. For the same molecule, the “FabZAP internalization, EC50, MDA-MB-231” value in test [15] came out at 0.0038 nM. Besides, the “FabZAP internalization, maximum toxicity, MDA-MB-231” value in [15] stood at 97%. Besides, the “FabZAP internalization, EC50, 4T1” value in test [16] worked out at 0.0331 nM. In addition, the “FabZAP internalization, maximum toxicity, 4T1” value in test [16] worked out at 97%.

B5: CD730002 (antibody, V domains shown)
VH: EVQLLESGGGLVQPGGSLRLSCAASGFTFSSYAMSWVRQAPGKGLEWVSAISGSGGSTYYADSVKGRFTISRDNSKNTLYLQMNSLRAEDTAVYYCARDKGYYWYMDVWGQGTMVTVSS
VL: QSVLTQPPSVSVSPGQTATITCSGDKVGDKYASWYQQKPGQSPVLVIYEDTKRPSRIPERFSGSNSGNTATLTISGTQALDEADYFCQAWDTSFWVFGGGTKLTVL
notes: IgG1-TM format; also called CD730002 antibody; clone 2
Regarding B5, the Kd in the test with Human CD73 ECD [1] is 0.007 nM; in the test with Murine CD73 ECD [2], 0.04 nM; in the test with Cynomolgus CD73 ECD [3], 0.015 nM; in test [6], 0.052 nM; in [7], 0.05 nM; in test [14], 0.052 nM. Besides, the “FabZAP internalization, EC50, MDA-MB-231” value in test [15] came to 0.0071 nM. The “FabZAP internalization, maximum toxicity, MDA-MB-231” value in test [15] was determined as 95%. For the same molecule, in [16], the “FabZAP internalization, EC50, 4T1” value was found to be 0.206 nM. Further, in test [16], the “FabZAP internalization, maximum toxicity, 4T1” value amounted to 83%. In addition, the “Enzyme Inhibition, rCD73, 1/EC50 (nM)” value with Human CD73 ECD [4] came out at 0.021 nM⁻¹. For the same molecule, the “Enzyme Inhibition, MDA-MB-231, 1/EC50 (nM)” value in [5] was 12 nM⁻¹. The “Internalization, MDA-MB-231, 1/EC50 (nM)” value in test [5] came out at 0.021 nM⁻¹. The 1/EC50 in the test with Human CD73 ECD [9] turned out to be 0.1 nM⁻¹; with Murine CD73 ECD [10] it was 0.024 nM⁻¹; with Cynomolgus CD73 ECD [11] it was 0.2 nM⁻¹.

B6: CD730002 SGMY (antibody, IgG1, V domains shown)
VH: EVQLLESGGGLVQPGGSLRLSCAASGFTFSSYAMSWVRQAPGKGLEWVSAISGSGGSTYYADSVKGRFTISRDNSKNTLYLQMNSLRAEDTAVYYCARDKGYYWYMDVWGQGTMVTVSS
VL: B5 VL with T19S, R56G, L80M, F86Y
notes: IgG1-TM; non-germlined VH, fully germlined VL (S20, G57, M81, Y87); also called Clone 2 SGMY
B6: the binding result with Human CD73 ECD [17] and in the test with Murine CD73 ECD [18] was “binds” in each case.

B7: CD730002 2C5 (antibody, V domains shown)
VH: EVQLLESGGGLVQPGGSLRLSCAASGFTFSSYAMSWVRQAPGKGLEWVSAISGSGGSTYYADSVKRRFTISRDNSKNTLYLQMNSLRAEDTAVYYCARDKGYYWYMDVWGQGTMVTVSS
VL: B5 VL with T19S, P54L, R56G, L80M, F86Y
notes: IgG1-TM format; also called clone 2C5 antibody
Consider B7, for which the Kd turned out to be 0.009 nM with Human CD73 ECD [1]; 0.022 nM with Murine CD73 ECD [2]; 0.009 nM with Cynomolgus CD73 ECD [3]; 0.084 nM in test [6]; 0.055 nM in test [7]; 0.063 nM in test [14]. For the same molecule, the “FabZAP internalization, EC50, MDA-MB-231” value in [15] amounted to 0.0091 nM. Also, the “FabZAP internalization, maximum toxicity, MDA-MB-231” value in test [15] is 98%. In test [16], the “FabZAP internalization, EC50, 4T1” value was found to be 0.173 nM. Moreover, the “FabZAP internalization, maximum toxicity, 4T1” value in test [16] came to 82%. Moreover, in test [19], the “fold lower EC50 than parental CD730002SGMY” value is 3 fold.
